In PMC2930068 (Journal of molecular biology, 2010):
“And” between values parts separate entries of the source, which are not always exact repeats. Identical values can stand only once.

B1: phosphorylated-Tyr701 STAT1 (1-712), N-terminal 6-histidine tag (natural protein, UniProt P42224-2 1-712, looked up)
chain: MSQWYELQQLDSKFLEQVHQLYDDSFPMEIRQYLAQWLEKQDWEHAANDVSFATIRFHDLLSQLDDQYSRFSLENNFLLQHNIRKSKRNLQDNFQEDPIQMSMIIYSCLKEERKILENAQRFNQAQSGNIQSTVMLDKQKELDSKVRNVKDKVMCIEHEIKSLEDLQDEYDFKCKTLQNREHETNGVAKSDQKQEQLLLKKMYLMLDNKRKEVVHKIIELLNVTELTQNALINDELVEWKRRQQSACIGGPPNACLDQLQNWFTIVAESLQQVRQQLKKLEELEQKYTYEHDPITKNKQVLWDRTFSLFQQLIQSSFVVERQPCMPTHPQRPLVLKTGVQFTVKLRLLVKLQELNYNLKVKVLFDKDVNERNTVKGFRKFNILGTHTKVMNMEESTNGSLAAEFRHLQLKEQKNAGTRTNEGPLIVTEELHSLSFETQLCQPGLVIDLETTSLPVVVISNVSQLPSGWASILWYNMLVAEPRNLSFFLTPPCARWAQLSEVLSWQFSSVTKRGLNVDQLNMLGEKLLGPNASPDGLIPWTRFCKENINDKNFPFWLWIESILELIKKHLLPLWNDGCIMGFISKERERALLKDQQPGTFLLRFSESSREGAITFTWVERSQNGGEPDFHAVEPYTKKELSAVTFPDIIRNYKVMAAENIPENPLKYLYPNIDKDHAFGKYYSRPKEAPEPMELDGPKGTGYIKTELISVSEV
modifications: phosphotyrosine at 701; alkylated with N-ethyl-maleimide

How the values were obtained:
[1] = molecular target: B1; test: SPR
[2] = molecular target: T1, pSTAT1 (1-712) F77A / L78A (UniProt P42224-2 1-712, F77A | L78A, phosphotyrosine at 701); test: SPR
T1 sequence (looked up): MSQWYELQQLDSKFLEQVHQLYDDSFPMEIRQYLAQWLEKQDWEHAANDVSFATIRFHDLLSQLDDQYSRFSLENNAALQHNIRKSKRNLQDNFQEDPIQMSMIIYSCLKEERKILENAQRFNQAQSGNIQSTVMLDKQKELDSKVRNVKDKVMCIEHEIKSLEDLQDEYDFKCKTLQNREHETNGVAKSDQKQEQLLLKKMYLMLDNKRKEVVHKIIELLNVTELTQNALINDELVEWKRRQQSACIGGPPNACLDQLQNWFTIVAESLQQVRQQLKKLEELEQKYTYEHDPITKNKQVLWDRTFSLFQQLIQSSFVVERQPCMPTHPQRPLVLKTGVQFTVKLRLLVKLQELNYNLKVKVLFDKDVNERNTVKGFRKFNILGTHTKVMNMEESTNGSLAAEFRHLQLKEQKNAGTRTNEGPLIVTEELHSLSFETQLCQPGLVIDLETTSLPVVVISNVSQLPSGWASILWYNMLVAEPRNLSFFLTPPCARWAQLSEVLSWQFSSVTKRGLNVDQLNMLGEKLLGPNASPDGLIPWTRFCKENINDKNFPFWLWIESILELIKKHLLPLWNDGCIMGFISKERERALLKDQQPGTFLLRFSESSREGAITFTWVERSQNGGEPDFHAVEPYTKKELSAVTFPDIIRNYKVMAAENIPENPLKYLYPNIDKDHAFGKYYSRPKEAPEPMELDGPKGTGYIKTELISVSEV

[3] = molecular target: the molecule itself; test: AUC

| Binder | Kd [1] | koff [1] | kon [1] | stoichiometry N [3] | other results |
| --- | --- | --- | --- | --- | --- |
| GST-importin α5 (res. 1-512) (domain or fragment) not shown | 166 ± 17 nM | 0.0204 s⁻¹ | 124000 M⁻¹ s⁻¹ | – | – |
| GST-importin α5 (res. 1-538) (natural protein) not shown | – | – | – | – | Kd [2]: 112 ± 22 nM; koff [2]: 0.0113 s⁻¹; kon [2]: 98100 M⁻¹ s⁻¹ |
| GST-importin α5 (res. 1-504) (domain or fragment) not shown | 247 ± 27 nM | 0.0243 s⁻¹ | 98300 M⁻¹ s⁻¹ | – | – |
| GST-ΔIBB-importin α5 (res. 79-538) (domain or fragment) not shown | 153 ± 16 nM | 0.0218 s⁻¹ | 144000 M⁻¹ s⁻¹ | – | – |
| unphosphorylated STAT1 (1-712), N-terminal 6-histidine tag (natural protein, UniProt P42224-2 1-712, looked up) MSQWYELQQLDSKFLEQVHQLYDDSFPMEIRQYLAQWLEKQDWEHAANDVSFATIRFHDLLSQLDDQYSRFSLENNFLLQHNIRKSKRNLQDNFQEDPIQMSMIIYSCLKEERKILENAQRFNQAQSGNIQSTVMLDKQKELDSKVRNVKDKVMCIEHEIKSLEDLQDEYDFKCKTLQNREHETNGVAKSDQKQEQLLLKKMYLMLDNKRKEVVHKIIELLNVTELTQNALINDELVEWKRRQQSACIGGPPNACLDQLQNWFTIVAESLQQVRQQLKKLEELEQKYTYEHDPITKNKQVLWDRTFSLFQQLIQSSFVVERQPCMPTHPQRPLVLKTGVQFTVKLRLLVKLQELNYNLKVKVLFDKDVNERNTVKGFRKFNILGTHTKVMNMEESTNGSLAAEFRHLQLKEQKNAGTRTNEGPLIVTEELHSLSFETQLCQPGLVIDLETTSLPVVVISNVSQLPSGWASILWYNMLVAEPRNLSFFLTPPCARWAQLSEVLSWQFSSVTKRGLNVDQLNMLGEKLLGPNASPDGLIPWTRFCKENINDKNFPFWLWIESILELIKKHLLPLWNDGCIMGFISKERERALLKDQQPGTFLLRFSESSREGAITFTWVERSQNGGEPDFHAVEPYTKKELSAVTFPDIIRNYKVMAAENIPENPLKYLYPNIDKDHAFGKYYSRPKEAPEPMELDGPKGTGYIKTELISVSEV | – | – | – | 2 | – |
| B1 | – | – | – | 2 and ~4 | – |
